The Human Domainome abundance scans (Beltran et al. 2025)
± gives the uncertainty stated by the source.

B1: RUN and FYVE domain-containing protein 1, residues 639 to 698; numbered along this chain, Q96T51 (parent)
chain: WLKDDEATHCRQCEKEFSISRRKHHCRNCGHIFCNTCSSNELALPSYPKPVRVCDSCHTL

Variants of: B1
Assay: abundance fitness (aPCA) (normalised: wild type 0, dead -1); higher = more abundant; growth selection in yeast, the domain comes from the species named
Conditions: Homo sapiens

Variant | abundance fitness
WLKDDEATHCRQCEKEFSISRRKHHCRNCGHIFCNTCCSNELALPSYPKPVRVCDSCHTL [S38C] | -0.029 ± 0.055
WLKDDEATHCRQCEKEFSISRRKHHCRNCGHIFCNTCASNELALPSYPKPVRVCDSCHTL [S38A] | 0.124 ± 0.077
WLKDDEATHCRQCEKEFSISRRKHHCRNCGHIFCNTCESNELALPSYPKPVRVCDSCHTL [S38E] | -0.954 ± 0.44
WLKDDEATHCRQCEKEFSISRRKHHCRNCGHIFCNTCDSNELALPSYPKPVRVCDSCHTL [S38D] | -0.665 ± 0.085
WLKDDEATHCRQCEKEFSISRRKHHCRNCGHIFPNTCSSNELALPSYPKPVRVCDSCHTL [C34P] | -0.633 ± 0.079
WLKDDEATHCRQCEKEFSISRRKHHCRNCGHIFNNTCSSNELALPSYPKPVRVCDSCHTL [C34N] | -0.709 ± 0.11
WLKDDEATHCRQCEKEFSISRRKHHCRNCGHIFTNTCSSNELALPSYPKPVRVCDSCHTL [C34T] | -0.612 ± 0.057
WLKDDEATHCRQCEKEFSISRRKHHCRNCGHIFWNTCSSNELALPSYPKPVRVCDSCHTL [C34W] | -0.736 ± 0.067
WLKDDEATHCRQCEKEFSISRRKHHCRNCGHIFRNTCSSNELALPSYPKPVRVCDSCHTL [C34R] | -0.642 ± 0.049
WLKDDEATHCRQCEKEFSISRRKHHCRNCGHIFDNTCSSNELALPSYPKPVRVCDSCHTL [C34D] | -0.577 ± 0.075
WLKDDEATHCRQCEKEFSISRRKHHCRNCGHIFFNTCSSNELALPSYPKPVRVCDSCHTL [C34F] | -0.853 ± 0.082
WLKDDEATHCRQCEKEFSISRRKHHCRNCGHIFKNTCSSNELALPSYPKPVRVCDSCHTL [C34K] | -0.493 ± 0.14
WLKDDEATHCRQCEKEFSISRRKHHCRNCGHIFMNTCSSNELALPSYPKPVRVCDSCHTL [C34M] | -0.398 ± 0.057
WLKDDEATHCRQCEKEFSISRRKHHCRNCGHIFHNTCSSNELALPSYPKPVRVCDSCHTL [C34H] | -0.44 ± 0.08
WLKDDEATHCRQCEKEFSISRRKHHCRNCGHIFGNTCSSNELALPSYPKPVRVCDSCHTL [C34G] | -0.608 ± 0.045
WLKDDEATHCRQCEKEFSISRRKHHCRNCGHIFINTCSSNELALPSYPKPVRVCDSCHTL [C34I] | -0.71 ± 0.096
WLKDDEATHCRQCEKEFSISRRKHHCRNCGHIFLNTCSSNELALPSYPKPVRVCDSCHTL [C34L] | -0.708 ± 0.052
WLKDDEATHCRQCEKEFSISRRKHHCRNCGHIFQNTCSSNELALPSYPKPVRVCDSCHTL [C34Q] | -0.542 ± 0.074
WLKDDEATHCRQCEKEFSISRRKHHCRNCGHIFYNTCSSNELALPSYPKPVRVCDSCHTL [C34Y] | -0.682 ± 0.086
WLKDDEATHCRQCEKEFSISRRKHHCRNCGHIFVNTCSSNELALPSYPKPVRVCDSCHTL [C34V] | -0.496 ± 0.055
WLKDDEATHCRQCEKEFSISRRKHHCRNCGHIFANTCSSNELALPSYPKPVRVCDSCHTL [C34A] | -0.659 ± 0.065
WLKDDEATHCRQCEKEFSISRRKHHCRNCGHIFSNTCSSNELALPSYPKPVRVCDSCHTL [C34S] | -0.758 ± 0.053

Variant | abundance fitness
WLKDDEATHCRQCEKEFSISRRKHHCRNCGHIFCTTCSSNELALPSYPKPVRVCDSCHTL [N35T] | 0.22 ± 0.037
WLKDDEATHCRQCEKEFSISRRKHHCRNCGHIFCDTCSSNELALPSYPKPVRVCDSCHTL [N35D] | 0.324 ± 0.067
WLKDDEATHCRQCEKEFSISRRKHHCRNCGHIFCRTCSSNELALPSYPKPVRVCDSCHTL [N35R] | 0.172 ± 0.034
WLKDDEATHCRQCEKEFSISRRKHHCRNCGHIFCPTCSSNELALPSYPKPVRVCDSCHTL [N35P] | 0.233 ± 0.051
WLKDDEATHCRQCEKEFSISRRKHHCRNCGHIFCATCSSNELALPSYPKPVRVCDSCHTL [N35A] | 0.341 ± 0.037
WLKDDEATHCRQCEKEFSISRRKHHCRNCGHIFCSTCSSNELALPSYPKPVRVCDSCHTL [N35S] | 0.23 ± 0.038
WLKDDEATHCRQCEKEFSISRRKHHCRNCGHIFCKTCSSNELALPSYPKPVRVCDSCHTL [N35K] | 0.183 ± 0.057
WLKDDEATHCRQCEKEFSISRRKHHCRNCGHIFCGTCSSNELALPSYPKPVRVCDSCHTL [N35G] | 0.436 ± 0.039
WLKDDEATHCRQCEKEFSISRRKHHCRNCGHIFCFTCSSNELALPSYPKPVRVCDSCHTL [N35F] | -0.064 ± 0.059
WLKDDEATHCRQCEKEFSISRRKHHCRNCGHIFCITCSSNELALPSYPKPVRVCDSCHTL [N35I] | 0.047 ± 0.066
WLKDDEATHCRQCEKEFSISRRKHHCRNCGHIFCLTCSSNELALPSYPKPVRVCDSCHTL [N35L] | 0.215 ± 0.034
WLKDDEATHCRQCEKEFSISRRKHHCRNCGHIFCHTCSSNELALPSYPKPVRVCDSCHTL [N35H] | 0.178 ± 0.059
WLKDDEATHCRQCEKEFSISRRKHHCRNCGHIFCMTCSSNELALPSYPKPVRVCDSCHTL [N35M] | 0.191 ± 0.039
WLKDDEATHCRQCEKEFSISRRKHHCRNCGHIFCWTCSSNELALPSYPKPVRVCDSCHTL [N35W] | 0.088 ± 0.04
WLKDDEATHCRQCEKEFSISRRKHHCRNCGHIFCCTCSSNELALPSYPKPVRVCDSCHTL [N35C] | 0.237 ± 0.051
WLKDDEATHCRQCEKEFSISRRKHHCRNCGHIFCQTCSSNELALPSYPKPVRVCDSCHTL [N35Q] | 0.173 ± 0.058
WLKDDEATHCRQCEKEFSISRRKHHCRNCGHIFCETCSSNELALPSYPKPVRVCDSCHTL [N35E] | 0.331 ± 0.045
WLKDDEATHCRQCEKEFSISRRKHHCRNCGHIFCVTCSSNELALPSYPKPVRVCDSCHTL [N35V] | 0.255 ± 0.034
WLKDDEATHCRQCEKEFSISRRKHHCRNCGHIRCNTCSSNELALPSYPKPVRVCDSCHTL [F33R] | -0.6 ± 0.053
WLKDDEATHCRQCEKEFSISRRKHHCRNCGHIICNTCSSNELALPSYPKPVRVCDSCHTL [F33I] | -0.171 ± 0.06
WLKDDEATHCRQCEKEFSISRRKHHCRNCGHINCNTCSSNELALPSYPKPVRVCDSCHTL [F33N] | -0.488 ± 0.12
WLKDDEATHCRQCEKEFSISRRKHHCRNCGHISCNTCSSNELALPSYPKPVRVCDSCHTL [F33S] | -0.47 ± 0.053
